Data as given in patent US8173598B2, “Myeloid protein activation of anti-inflammatory and anti-hypoxic pathway” (The Board of Trustees of the University of Illinois, priority 2008, dated 2012).
No end group written: not given here. *: point of attachment. Palmitoyl = CCCCCCCCCCCCCCCC(=O)*

Columns and labels:
[1] = test system: Human peripheral neutrophils; test: Spontaneous oxidative activation of neutrophils (DCFH-DA oxidation); format: cell-based
Source text: (§1) Human peripheral neutrophils were isolated from heparinized blood donated by healthy volunteers according to a protocol approved by the University of Illinois Institutional Review Board. The cells were isolated using a Histopaque™ gradient (Sigma) according to the manufacturer's instructions. Cell viability and identity was confirmed by trypan blue staining. Live cells and neutrophils represented at least 95% of isolated leukocytes.
(§2) The method for the measurement of oxidative activation of neutrophils was based on the ROS-dependent oxidation of DCFH-DA to DCF and was adapted from Ciapetti et al. DCFH-DA crosses the cell membrane and is hydrolyzed by nonspecific esterases to nonfluorescent DCFH. Its oxidation by ROS results in the generation of highly fluorescent DCF [30]. DCFH-DA is therefore a widely accepted probe for the measurement of an overall index of oxidative activity. DCFH-DA was purchased from Calbiochem (Madison, Wis.). The assays were run in clear bottom black 96-well plate. “Edge effects” (a higher fluorescence in edge wells) were avoided by using only center wells. Briefly, 50 μl of Dulbecco's Phosphate Buffered Saline (DPBS) containing DCFH-DA was added to each well with the final concentration of […]. S100 proteins or PKC inhibitors were diluted in the wells. Just before a baseline reading 100,000 neutrophils in 50 μl PBS were placed in each well. 96-well plates were incubated at 37° C. and 5% CO2 and were read at baseline (immediately after cell addition to the plates) and at indicated time points in a Spectra Max Gemini XS fluorescent plate reader. The excitation wavelength was 485 and the reading was done at 530 nm. Wells with no DCFH-DA were used to measure background fluorescence which was subtracted from each reading. Controls with no cells were also analyzed and display no increased fluorescence over time. All assays were conducted in triplicate or quadruplicate wells.
In order to avoid differences between donors, experimental procedures and plate to plate variation, all experimental conditions and statistical analysis were run within one plate inclusive of all positive and negative controls. Single sample t-tests were calculated to test the S100A8, S100A9 and combined proteins in comparison to the control wells with alpha set to ≦0.05 to determine statistical significance. Comparisons between the S100A8, S100A9 and combined proteins were calculated with two sample t-tests using SPSS (SPSS Inc., Chicago, Ill.) with alpha set to ≦0.05 to determine statistical relevance.

[2] = test system: Human peripheral neutrophils; test: PAR-4 activating peptide enhanced neutrophil oxidative metabolism (DCFH-DA oxidation); format: cell-based; conditions: P4pal-i1 with PAR-4 activating peptide (FIG. 6A)
Source text: as §1
The method for the measurement of oxidative activation of neutrophils was based on the ROS-dependent oxidation of DCFH-DA to DCF and was adapted from Ciapetti et al. DCFH-DA crosses the cell membrane and is hydrolyzed by nonspecific esterases to nonfluorescent DCFH. […] “Edge effects” (a higher fluorescence in edge wells) were avoided by using only center wells. […] Just before a baseline reading 100,000 neutrophils in 50 μl PBS were placed in each well. 96-well plates were incubated at 37° C. and 5% CO2 and were read at baseline (immediately after cell addition to the plates) and at indicated time points in a Spectra Max Gemini XS fluorescent plate reader. The excitation wavelength was 485 and the reading was done at 530 nm. Wells with no DCFH-DA were used to measure background fluorescence which was subtracted from each reading. Controls with no cells were also analyzed and display no increased fluorescence over time. […]

[3] = test system: Human peripheral neutrophils; test: PMA induced activation of neutrophil oxidative metabolism (DCFH-DA oxidation); format: cell-based; conditions: dose dependent
Source text: as §1, §2

neutrophils = conditions: cited from earlier work
PAR-4 = molecular target: T1, PAR-4 (Homo sapiens, UniProt Q96RI0); test: Calcium flux and desensitization to thrombin in PAR-4 expressing Chem.-1 cells; format: cell-based
T1 construct: host or cells: Chem-1 cells
T1 sequence (Q96RI0 18-385): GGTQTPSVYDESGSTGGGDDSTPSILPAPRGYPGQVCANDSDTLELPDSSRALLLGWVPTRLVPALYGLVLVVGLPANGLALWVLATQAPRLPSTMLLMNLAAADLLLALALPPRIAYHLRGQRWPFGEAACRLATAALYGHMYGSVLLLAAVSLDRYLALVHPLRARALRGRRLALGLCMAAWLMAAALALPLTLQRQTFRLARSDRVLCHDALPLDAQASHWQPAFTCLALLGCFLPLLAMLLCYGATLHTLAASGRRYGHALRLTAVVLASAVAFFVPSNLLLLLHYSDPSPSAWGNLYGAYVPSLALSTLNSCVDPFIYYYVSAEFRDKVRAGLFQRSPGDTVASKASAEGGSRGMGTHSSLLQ
Description: (§3) Screening for S100A8 and S100A9 activity on thrombin receptors including thrombin receptor desensitization were conducted with calcium flux assays in Chem 3 and PAR-4 expressing Chem.-1 cells by Millipore's GPCRProfiler(R) Service (Millipore, St. Charles, Mo.; see website Millipore website on the internet).

[4] = test system: Human peripheral neutrophils; test: LPS stimulated neutrophil oxidative metabolism (DCFH-DA oxidation); format: cell-based; conditions: 2.5 to 10 μg/ml of protein; LPS 10 μg/ml
Source text: as §1, §2

thrombin receptors = test: Calcium flux and thrombin-S100A8/A9 cross-desensitization in Chem-3 cells; format: cell-based; conditions: each alone
Description: as §3

[5] = test system: excisional cutaneous wounds; test: Wound closure in the SKH-1 restraint stress model; format: in vivo, SKH-1 mice
Source text: This protocol was approved by the Committee on Animal Research at the University of Illinois at Chicago. Virus antibody-free, female SKH-1 mice, 5-6 weeks of age, were purchased from Charles River, Inc (Wilmington, Mass.). The animals were allowed to acclimate to the animal facility for at least one week prior to experimental procedures.
(§4) The restraint stress protocol is based on established procedures (Gajendrareddy et al., 2005; Mercado et al., 2002; Padgett et al., 1998). Restraint was initiated 3 days before wounding. Restraint stress (RST) in this model consists of confinement of mice within loosely fitting, well-ventilated 50 ml conical tubes for a period of 12-14 hours during their active nocturnal cycle. Animals were subjected to restraint for an additional five cycles on the day of wounding and for four days thereafter, then stress was discontinued.
For excisional wounds, mice were anesthetized with a single 0.25 ml intraperitoneal injection of Ketaset solution (Aveco, Fort Dodge, Iowa) at a concentration of 7.8 mg/ml, plus Rompum (Haver-Lockhart, Shawnee, Kans.) at 0.44 mg/ml. Each animal received two standardized circular cutaneous wounds with 3.5 mm punch (Miltex Instrument Company), placed just behind the shoulder blades with a biopsy punch.
(§5) For treatment of wounds, S100A8 and mutant ala^42S100A8 were produced, cleaved and purified from a GST fusion construct as previously described (Tugizov et al., 2005) (Sroussi et al., 2006). The endotoxin levels in the recombinant protein preparations were below 1 ng/μg of proteins as measured by the Limulus amoebocyte lysate assay (LAL) (Associates of Cape Cod, Falmouth, Mass.). Solutions of S100 proteins at a concentration of 1 μg/ml were used for those experiments. Introduction of S100A8 protein or control saline vehicle were conducted through local injection intradermally of 25 μl solution in the tissue surrounding the wounds with the help of Micro-Fine IV syringes 28G1/2 (Becton Dickinson, Franklin Lakes, N.J.). Careful wound manipulation ensured no direct disruption of the wound site. An additional 10 μl solution was applied directly to the wounds.
Measurement of Wound Sizes was done as follows. Beginning on the day of wounding (day 0), each animal's wounds were photographed daily until day 5 post-wounding. Photographs of the wound were obtained with a standard-sized dot placed next to the site. Digitized photographs were analyzed using photoplanimetry (Marucha et al., 1998). An investigator blinded to treatment group and day of photograph measured wound size. Wound size was expressed as the percentage of the wound area determined on every post-wounding day, compared with the original wound area.

wound bacterial load = format: in vivo, SKH-1 mice
Description: as §4, §5
Wound biopsies were performed to evaluate bacterial clearance. Mice were anesthetized as described above. The dorsal area was cleaned with Betadine and a uniform, full-thickness wound located on the dorsum just below the shoulder blades was created with a sterile 6.0-mm punch (Miltex Instrument Company).
Wound infection was assessed with measurement of bacterial load at the wound site by methods adapted from Rojas (Rojas et al., 2002). At day 1 and day 5 post-wounding, mice were euthanized; wounds were collected with a 6-mm punch (see above) and homogenized in 1 ml of sterile PBS. Homogenates were serially diluted (1:10); plated in duplicate on BHI agar, and incubated for 15 h. Bacterial colonies were counted.

[6] = test system: recruitment of neutrophils; conditions: rat air-pouch; Sroussi et al., 2006; cited from earlier work
[7] = restraint stressed (RST) mice, single local treatment immediately after wounding

Molecule: C15H31CONH-ATGAPRLPST (Palmitoyl-ATGAPRLPST) [P4pal-i1, reference compound]
- spontaneous oxidative metabolic activity ([1]; 2.5 μM P4pal-i1): spontaneous oxidative metabolic activity was reduced
- effect on S100A8, S100A9 and calprotectin inhibition of spontaneous oxidative metabolic activity ([1]; P4pal-i1 with S100 proteins (FIG. 6B)): blocked the ability of S100A8, S100A9 and calprotectin (S100A8/A9 in combination) to inhibit the spontaneous oxidative metabolic activity of neutrophils
- PAR-4 activating peptide enhancement of oxidative metabolism [2]: blocked the ability of the PAR-4 activating peptide to enhance oxidative metabolism

Molecule: S100A8: recombinant human S100A8 calcium binding protein, expressed in Escherichia coli as GST fusion, GST tag cleaved
- PMA activation of neutrophils [3]: produced a dose dependent inhibition of PMA activation of neutrophils
- neutrophil chemotaxis toward bacterial products (formylated peptides) (neutrophils; in-vitro, Sroussi et al., 2006, 2007): inhibit neutrophil chemotaxis toward bacterial products
- rate of spontaneous oxidation of the DCFH-DA probe ([1]; 2.5 to 10 μg/ml of protein, followed over time, p <0.001 to <0.05): reduced the rate at which spontaneous oxidation of the DCFH-DA probe occurred in a dose dependent manner
- oxidative activation of neutrophils ([1]; 5, 2.5 and 1.25 μg/ml, p<0.05): inhibited the oxidative activation of neutrophils
- oxidative metabolism (fluorescence emission of DCFH-DA probe) ([1]; 1 h time point, all concentrations tested, P<0.05 compared to control): significantly inhibited oxidative metabolism at all concentrations tested
- oxidative activation of neutrophils, protein first boiled ([1]; same concentrations (5, 2.5, 1.25 μg/ml), protein boiled for 5 minutes): did not significantly affect the neutrophils
- calcium flux in PAR-4 expressing cells (PAR-4; data not shown): activated calcium flux in those cells
- desensitization of PAR-4 expressing cells to thrombin activation (PAR-4; previous treatment with different concentrations, then 10 nM thrombin): dose dependently desensitized PAR-4 expressing cells to thrombin activation
- LPS stimulation of neutrophil oxidative activity [4]: strongly inhibited LPS stimulation of neutrophil oxidative activity
- calcium flux in Chem-3 cells (thrombin receptors): trigger calcium flux in Chem-3 cells in a dose dependent manner
- wound closure rate in stressed animals [5, 7]: partial acceleration in wound closure rate in stressed animals

B1: ala^42S100A8: oxidation-resistant analog of S100A8 engineered using site-directed mutagenesis (cysteine 42 replaced with alanine) (protein, UniProt P05109 1-93, looked up, variant C42A)
Protein S100-A8: MLTELEKALNSIIDVYHKYSLIKGNFHAVYRDDLKKLLETEAPQYIRKKGADVWFKELDINTDGAVNFQEFLILVIKMGVAAHKKSHEESHKE
- chemo-repulsive activity under oxidative conditions (neutrophils; conditions that inhibit wild type S100A8): retains its chemo-repulsive activity under oxidative conditions
- wound bacterial loads, stressed mice, day 1 (wound bacterial load; RST mice, day 1, vs saline treated stressed mice): statistically significant reduction in bacterial loads
- wound bacterial loads, stressed mice, day 5 (wound bacterial load; RST mice, day 5, vs saline treated stressed mice): statistically significant reduction in bacterial loads
- wound bacterial counts, FWD mice, day 1 (wound bacterial load; mouse, in vivo): statistically significant increase in wound bacterial counts
- wound bacterial counts, FWD mice, day 5 (wound bacterial load; mouse, in vivo): bacterial counts had reverted to control values
- recruitment of neutrophils stimulated by bacterial endotoxins [6]: inhibits the recruitment of neutrophils stimulated by bacterial endotoxins
- wound closure in non-stressed animals with daily treatment ([5]; FWD mice, daily treatment, vs daily saline): significant delay in wound closure starting at day 4 post-wounding
- wound closure rates in non-stressed control animals ([5]; FWD mice, single application): normal wound closure rates
- wound closure rates with daily injections ([5]; daily administration to the wounds): did not result in the amelioration of wound closure rates
- wound closure rate in stressed animals [5, 7]: closure rate similar to the closure rates observed in the non stressed food and water deprived (FWD) group
- average wound size in stressed animals vs saline ([5]; restraint stressed (RST) mice, single local treatment immediately after wounding, from day 2 on): significantly smaller than the average wound size in stressed animals treated with saline
